This is an account of results in publication PMC9838529.

“And” between values parts separate entries of the source, which are not always exact repeats. Identical values can stand only once.

For one assay, the target named is aE11 IgG (mouse). The assay is described as follows: SPR; aE11 IgG amine-coupled to a CM5 chip (~7000 RU), monomeric C9 as analyte; Biacore T200, 25 °C; 10 mM HEPES-NaOH pH 7.2, 150 mM NaCl, 1 mM EDTA, 0.005% P20; multi-cycle kinetics; off rate from a simple exponential decay (1:1 model); steady state not reached. Background: Surface plasmon resonance follows binding to a sensor surface in real time, without labels.
aE11 IgG (mouse), sequence (heavy, as listed by the source, chain 1 of 2): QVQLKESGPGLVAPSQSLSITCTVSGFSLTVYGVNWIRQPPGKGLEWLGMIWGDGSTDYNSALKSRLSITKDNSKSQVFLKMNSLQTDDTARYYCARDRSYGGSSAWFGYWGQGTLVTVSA
aE11 IgG (mouse), sequence (light, as listed by the source, chain 2 of 2): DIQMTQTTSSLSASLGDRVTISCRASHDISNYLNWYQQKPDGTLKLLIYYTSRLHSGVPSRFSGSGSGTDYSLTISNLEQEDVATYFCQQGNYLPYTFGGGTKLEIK

Assay [1] concerns the target monoclonal mouse antibody aE11 (full IgG) (mouse). Kind of assay: SPR; aE11 IgG amine-coupled to a CM5 chip (~7000 RU), monomeric C9 as analyte; Biacore T200, 25 °C; 10 mM HEPES-NaOH pH 7.2, 150 mM NaCl, 1 mM EDTA, 0.005% P20; multi-cycle kinetics; off rate from a simple exponential decay (1:1 binding model); n = 2.
Assay [2] deals with polyC9 (in vitro homo-oligomerised human C9, wild type) (human). The assay is described as follows: cryo-EM structure; aE11-Fab mixed with polyC9 in stoichiometric quantities; 1 mg/ml in 10 mM HEPES, 50 mM NaCl, pH 7.2; symmetry expansion and focused refinement of three C9 protomers and two Fab variable regions.

monoclonal mouse antibody aE11 (full IgG) (mouse), sequence (heavy, as listed by the source, chain 1 of 2): as the sequence (heavy, as listed by the source, chain 1 of 2) above
monoclonal mouse antibody aE11 (full IgG) (mouse), sequence (light, as listed by the source, chain 2 of 2): as the sequence (light, as listed by the source, chain 2 of 2) above
human complement C9, wild type, monomeric, sequence (P02748 22-559): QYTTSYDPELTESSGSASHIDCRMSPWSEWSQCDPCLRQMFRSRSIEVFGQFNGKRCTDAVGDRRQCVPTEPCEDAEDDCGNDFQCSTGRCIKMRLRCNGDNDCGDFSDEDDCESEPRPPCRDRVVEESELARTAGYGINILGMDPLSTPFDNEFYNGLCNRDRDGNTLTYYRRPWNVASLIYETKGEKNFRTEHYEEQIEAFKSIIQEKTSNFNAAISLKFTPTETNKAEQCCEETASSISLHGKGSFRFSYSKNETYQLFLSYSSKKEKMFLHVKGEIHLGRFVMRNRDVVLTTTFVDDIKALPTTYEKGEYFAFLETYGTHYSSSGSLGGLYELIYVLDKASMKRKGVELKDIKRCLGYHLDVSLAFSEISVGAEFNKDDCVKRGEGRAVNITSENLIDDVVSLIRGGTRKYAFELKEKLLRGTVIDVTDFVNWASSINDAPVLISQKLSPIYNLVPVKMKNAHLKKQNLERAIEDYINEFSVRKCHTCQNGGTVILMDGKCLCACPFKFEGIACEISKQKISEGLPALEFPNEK
monomeric human C9, wild type (recombinant), sequence (P02748 22-559): as above

The substance “monomeric human C9 R65Q (from UniProt P02748 22-559) (natural protein)” had a koff with aE11 IgG (mouse) of 0.0001 s⁻¹.
Regarding “human complement C9 R65Q, monomeric (from UniProt P02748 22-559) (natural protein)”, in assay [1], the koff was 0.000214 s⁻¹ and 8.63e-05 s⁻¹.
“polyC9 (in vitro homo-oligomerised human C9, wild type) (complex)”: in assay [2], the stoichiometry N was determined as 22.
Consider “human complement C9 F262C/V405C, disulphide-trapped, monomeric (from UniProt P02748 22-559) (natural protein)”, for which the koff in assay [1] is 0.000267 s⁻¹ and 0.000353 s⁻¹.
In the assay with aE11 IgG (mouse), “monomeric human C9 P72E (from UniProt P02748 22-559) (natural protein)” had a fold reduction of binding against wild-type monomeric C9 of 2 fold and a dissociation rate constant (koff) of 0.0001 s⁻¹.
Consider “human complement C9, wild type, monomeric (from UniProt P02748 22-559) (natural protein)”, for which, in assay [1], the koff is 0.000169 s⁻¹ and 0.000183 s⁻¹.
For “monomeric human C9 V68E (from UniProt P02748 22-559) (natural protein)”, in the assay with aE11 IgG (mouse), the fold reduction of binding against wild-type monomeric C9 was 2 fold and the koff came to 0.0001 s⁻¹.
In the case of “disulphide-trapped C9 variant (F262C/V405C) (from UniProt P02748 22-559) (natural protein)”, the off-rate constant (koff) in the assay with aE11 IgG (mouse) was 0.0001 s⁻¹.
In the assay with aE11 IgG (mouse), “monomeric human C9, wild type (recombinant) (from UniProt P02748 22-559) (natural protein)” displayed a dissociation constant Kd of 500 to 2000 nM and a koff of 0.0001 s⁻¹.
In the case of “human complement C9 V68E, monomeric (from UniProt P02748 22-559) (natural protein)”, the koff in assay [1] is 3.11e-05 s⁻¹ and 3.58e-05 s⁻¹.
The same measure, in the same setting: for “human complement C9 P72E, monomeric (from UniProt P02748 22-559) (natural protein)” the value was 0.000106 s⁻¹ and 6.14e-05 s⁻¹.

Broadly, the koff is the first-order rate constant of dissociation. A high value points to a short-lived complex. As a reminder, the stoichiometry N is the number of molecules, sites or subunits per partner or assembly. The term Kd denotes the equilibrium constant for the complex coming apart. Low values mean tighter binding, high ones weaker binding.
